Test results reported in paper PMC7939470 (The Journal of Biological Chemistry, 2021).
Like-named read-outs stand apart in the source and are kept apart here. Where no end group is shown, it is not given here.

Experiments:
[1] = target: T1, RPA70N (N-terminal domain of RPA70, RPA70N1–120) (Homo sapiens, UniProt P27694); settings: RPA70N binding, cited from earlier work
T1 construct: RPA70N1–120 and RPA70A181–304 were expressed and purified as described previously; made in house

[2] = test system: RPA70A (RPA70A181–304); assay: Fluorescence polarization anisotropy (FPA) assay, FITC-labeled peptide + RPA70A; format: binding; settings: 50 nM FITC-labeled peptide, 0–150 μM RPA70A, pH 7.4, 25 °C, anisotropy not saturated, not fitted
Protocol: RPA70N1–120 and RPA70A181–304 were expressed and purified as described previously ([5], [30]). ^15N-Labeled RPA70N was also expressed and purified with the same method using M9 medium. All of the synthesized peptides except for the FITC-labeled peptide were purchased from Lugen Sci (Gyeonggi-do, Korea). FITC-labeled peptides were purchased from AnyGen (Gwangju, Korea). Purchased peptides were dissolved in 20 mM HEPES, 100 mM NaCl, 2 mM DTT, pH 7.4, buffer to make a 2 mM stock and stored at −20 °C until use.
For FITC labeling, a 6-aminocaproic acid (6-aminohexanoic acid) spacer was used. […] The emission polarization anisotropy was calculated by referring to a previous publication ([5]). The fluorescence was measured using BioTek Cytation5 and GENE5 software (GIST, Gwangju) with excitation and emission wavelengths of 485 and 528 nm, respectively. […] All experiments were repeated three times, and dissociation constants (Kd) were calculated using the “one site–specific” fitting model of the GraphPad software. The equation used in the fitting is as follows, (Eq. 1) y=Bmax×X/Kd+X where y is the fluorescence anisotropy, Bmax is the maximum specific binding, Kd is the equilibrium binding constant, and X is the concentration of RPA. […] Equilibrium fluorescence measurements were performed in the same way as described above. […]

[3] = test system: RPA70N–BLM peptide complex; assay: Competitive FPA assay, unlabeled pmRPA32 peptide against FITC-labeled BLM peptide on RPA70N; format: binding; settings: 0–250 μM unlabeled pmRPA32 peptide; 6 μM (BLM153-165) or 13 μM (BLM290-301) RPA70N; 500 nM FITC-labeled BLM peptide; repeated three times; Fig. S4
Protocol: For FITC labeling, a 6-aminocaproic acid (6-aminohexanoic acid) spacer was used. Increasing concentrations (0–150 μM) of RPA70N or RPA70A were prepared in an assay buffer of 20 mM HEPES, 100 mM NaCl, 2 mM DTT, pH 7.4, in Corning 96-well black flat-bottom plates (polystyrene, nontreated). To each well, FITC-RPA32 peptide was added to a final concentration of 50 nM, and the plates were incubated on a shaker for 1 h at 25 °C. The total volume of the reaction sample was 50 μl. The emission polarization anisotropy was calculated by referring to a previous publication ([5]). The fluorescence was measured using BioTek Cytation5 and GENE5 software (GIST, Gwangju) with excitation and emission wavelengths of 485 and 528 nm, respectively. […] All experiments were repeated three times, and dissociation constants (Kd) were calculated using the “one site–specific” fitting model of the GraphPad software. The equation used in the fitting is as follows, (Eq. 1) y=Bmax×X/Kd+X where y is the fluorescence anisotropy, Bmax is the maximum specific binding, Kd is the equilibrium binding constant, and X is the concentration of RPA. […] Equilibrium fluorescence measurements were performed in the same way as described above. […]
Competitive fluorescence polarization anisotropy of BLM peptide, RPA70N, and pmRPA32 peptide. […]

[4] = target: T2, RPA70N_(1–120), N-terminal domain of RPA70 (DBD-F) (UniProt P27694 1-120); assay: fluorescence polarisation; competitive FPA; 0–250 μM unlabeled pmRPA32 peptide added to 6 μM (for BLM 153-165) or 13 μM (for BLM 290-301) RPA70N and 500 nM FITC-labeled BLM peptide; 20 mM HEPES, 100 mM NaCl, 2 mM DTT, pH 7.4; settings: both partners purified
T2 construct: Replication protein A 70-kDa subunit (RPA70), N-terminal domain (DBD-F), residues 1-120; Uniformly 15N-labelled in the NMR titrations, unlabelled in the FPA assays; also called 15N-labeled RPA70N; source: 15N-labeled form by the same method using M9 medium

[5] = target: T2, RPA70N_(1–120), N-terminal domain of …; assay: fluorescence polarisation; FPA; 0–150 μM RPA70N or RPA70A titrated to 50 nM FITC-labeled peptide; 20 mM HEPES, 100 mM NaCl, 2 mM DTT, pH 7.4; 1 h at 25 °C; one site–specific fit; settings: both partners purified
[6] = target: T2, RPA70N_(1–120), N-terminal domain of …; assay: as above; settings: both partners purified; remark: listed apart in the source
[7] = measured with the same FPA method

Molecule: p53_44–58: RPA70N-binding sequence of p53
- Kd [1]: 99.9 ± 8.4 µM

Molecule: MRE11_539–553: RPA70N-binding sequence of MRE11 (AFSADDLMSIDLAEQ; UniProt P49959 539-553, looked up, fragment)
- Kd [1]: 65.8 ± 23.7 µM

Molecule: BLM290–301: acidic RPA70N-binding peptide from the N-terminal region of Bloom syndrome protein (EFDDDDYDTDFV; also: FITC via 6-aminohexanoic acid spacer, end not given here)
- Kd [1, 7]: 13.5 ± 2.4 µM

Molecule: RAD9_297–311: RPA70N-binding sequence of RAD9 (DFANDDIDSYMIAME; UniProt Q99638 297-311, looked up, fragment)
- Kd [1]: 51.4 ± 8.9 µM

Molecule: C[C@H](NC(=O)CNC(=O)CNC(=O)[C@H](Cc1ccc(O)cc1)NC(=O)[C@H](CC(=O)O)NC(=O)[C@H](CC(=O)O)NC(=O)[C@H](CC(=O)O)NC(=O)CNC(=O)[C@H](Cc1ccc(O)cc1)NC(=O)[C@H](CC(=O)O)NC(=O)CCCCCNC(=S)Nc1ccc2c(c1)C(=O)OC21c2ccc(O)cc2Oc2cc(O)ccc21)C(=O)NCC(=O)NCC(=O)N[C@@H](Cc1ccc(O)cc1)C(=O)N[C@@H](CC(=O)O)C(=O)N[C@@H](CCC(N)=O)C(=O)N[C@@H](CC(=O)O)C(=O)N1CCC[C@H]1C(=O)NCC(=O)NCC(=O)N[C@@H](Cc1ccccc1)C(=O)NCC(=O)N[C@@H](CC(=O)O)C(=O)N1CCC[C@H]1C(=O)N[C@@H](C)C(=O)N1CCC[C@H]1C(=O)N[C@@H](CC(=O)O)C(=O)O [pmRPA32]
- Binding to RPA70A (in words) [2]: does not bind
- Competition with FITC-labeled BLM peptide for RPA70N [3]: did not compete with BLM peptide

Molecule: BLM153–165: acidic RPA70N-binding peptide from the N-terminal region of Bloom syndrome protein (DWDDMDDFDTSET; also: FITC via 6-aminohexanoic acid spacer, end not given here)
- Kd [1, 7]: 5.76 ± 0.86 µM

Molecule: ATRIP54–68: RPA70N-binding sequence of ATRIP (DFTADDLEELDTLAS; UniProt Q8WXE1 54-68, looked up, fragment)
- Kd [1]: 28.6 ± 3.1 µM

B1: FITC-labeled BLM_(153-165) peptide (peptide, UniProt P54132 153-165, looked up)
peptide: DWDDMDDFDTSET
modifications: also: FITC via 6-aminohexanoic acid spacer, end not given here
notes: also called BLM peptide; source: synthetic peptide, bought: AnyGen
- binding result [4]: binds

Molecule: DYGDDDYGGAGGYDQDPGGFGDPAPD (peptide, UniProt P15927 8-33, looked up, also: FITC with 6-aminohexanoic acid spacer, end not given here) [FITC-labeled pmRPA32_(8–33) peptide (phosphomimetic RPA32, eight aspartic acids)]
- Kd [5]: 21.5 ± 0.6 µM

Molecule: DAGDDDYGGAGGYDQDPGGFGDPAPD (peptide, UniProt P15927 8-33, looked up, also: FITC with 6-aminohexanoic acid spacer, end not given here) [FITC-labeled pmRPA32-Y9A peptide]
- Kd [6]: 40 ± 0.7 µM

B2: FITC-labeled BLM_(290-301) peptide (peptide, UniProt P54132 290-301, looked up)
peptide: EFDDDDYDTDFV
modifications: also: FITC via 6-aminohexanoic acid spacer, end not given here
notes: as for B1
- binding result [4]: binds

Molecule: DYGDDDAGGAGGYDQDPGGFGDPAPD (peptide, UniProt P15927 8-33, looked up, also: FITC with 6-aminohexanoic acid spacer, end not given here) [FITC-labeled pmRPA32-Y14A peptide]
- Kd [6]: 37 ± 0.6 µM

Molecule: DYGDDDYGGAGGYDQDPGGAGDPAPD (peptide, UniProt P15927 8-33, looked up, also: FITC with 6-aminohexanoic acid spacer, end not given here) [FITC-labeled pmRPA32-F27A peptide]
- Kd [6]: 21.7 ± 0.5 µM

Molecule: DYGDDDYGGAGGADQDPGGFGDPAPD (peptide, UniProt P15927 8-33, looked up, also: FITC with 6-aminohexanoic acid spacer, end not given here) [FITC-labeled pmRPA32-Y20A peptide]
- Kd [6]: 24.5 ± 0.7 µM
